In US20050048512A1 (published 2005):
“And” between values parts separate entries of the source, which are not always exact repeats. Equal values may be shown once.

T1: CD20 on Raji or Daudi cells (UniProt P11836 1-297, limits assumed)
T1 construct: whole, on cells
T1 sequence (looked up): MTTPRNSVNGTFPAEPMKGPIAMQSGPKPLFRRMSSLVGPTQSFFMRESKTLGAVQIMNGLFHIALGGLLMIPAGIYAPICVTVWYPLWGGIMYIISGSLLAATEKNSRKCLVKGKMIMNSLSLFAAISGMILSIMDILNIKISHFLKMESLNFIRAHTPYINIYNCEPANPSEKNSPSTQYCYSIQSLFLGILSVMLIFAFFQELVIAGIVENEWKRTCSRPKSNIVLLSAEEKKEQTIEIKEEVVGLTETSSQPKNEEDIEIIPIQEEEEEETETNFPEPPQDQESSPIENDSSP


Assays:
[1] = target: T2, CD28 (UniProt P10747 19-152, limits assumed); experiment: Biacore, CD28 on CM5 chip, 0.5 and 5 uM protein in flow
T2 construct: Purified CD28 immobilized by NHS/EDC coupling (Biacore) or hydrophobic adsorption (ELISA); also called target protein CD28

[2] = target: CD28 on human PBMC (human, UniProt P10747 19-220); experiment: cell-based or functional assay
[3] = target: CD28 on monkey PBMC (monkey (cynomolgus), UniProt Q0PDN3 19-220); experiment: cell-based or functional assay
[4] = target: T2, CD28; experiment: ELISA, 10 ng CD28 per well, serial dilutions of protein, anti-HA-HRP detection
[5] = target: T1, CD20 on Raji or Daudi cells; experiment: phage clone on Raji or Daudi cells with or without 1 mg/mL Rituxan

Binder | Kd [1] | IC50, PBMC assay on human cells (3H thymidine incorporation) [2] | IC50, PBMC assay on monkey cells (3H thymidine incorporation) [3] | ELISA (column head; quantity not named) [4] | binding result [5]
CD28-A10 (designed binder, LDL receptor A-domain trimer; also called CD28 10; CD28 trimer clone 10) CGPGRFQCESGQCVPATWVCDGDDDCADGSDEKSCATTAPTCESNQFQCGSGQCLPGTWRCDGVNDCADSSDETGCGRPGPGATSAPAACGPGRFQCNNGNCVPQTLGCDGDNDCGDSSDEANCSAPASEPPGSL | 29 nM | 3 nM and 40 ng/ml | 7 nM | 1.7e-10 | 
CRRNEFRCKSGHCVPQPLVCDGVRDCEDNSDEPSCGRPGPGATSAPAA (designed binder) [CD20 binding sequence 9] |  |  |  |  | binds
CLPERFQCAVPGYCIPLPGVCDGVNDCQEDSDEPNCRAPGLR (designed binder) [CD20 binding sequence 8] |  |  |  |  | binds
